The values below come from patent US20090214524A1.

The test has as its target Bub3 (UniProt O43684). Nature of the test: cell-based or functional assay.
UniProt O43684, sequence (O43684 whole entry): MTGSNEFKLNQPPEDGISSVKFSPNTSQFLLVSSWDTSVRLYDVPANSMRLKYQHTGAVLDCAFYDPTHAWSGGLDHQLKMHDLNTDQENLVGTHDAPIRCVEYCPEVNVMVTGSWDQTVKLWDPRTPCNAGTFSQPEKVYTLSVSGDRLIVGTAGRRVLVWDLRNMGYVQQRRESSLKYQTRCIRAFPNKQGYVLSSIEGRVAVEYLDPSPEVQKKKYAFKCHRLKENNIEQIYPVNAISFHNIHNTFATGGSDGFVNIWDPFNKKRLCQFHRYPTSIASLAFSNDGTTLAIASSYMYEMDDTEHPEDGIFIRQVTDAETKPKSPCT

Substance “myc-tagged siRNA-resistant wild type BubR1 (pcDNA3-myc-BubR1^ΔsiRNA) (from UniProt O60566 1-1050)” showed a restoration of colcemid-mediated mitotic checkpoint arrest (BrdU incorporation) in T98G cells depleted of endogenous BubR1 of 50%.
